Data reported in paper PMC4102529, “FRET Based Quantification and Screening Technology Platform for the Interactions of Leukocyte Function-Associated Antigen-1 (LFA-1) with InterCellular Adhesion Molecule-1 (ICAM-1)” (PLoS ONE, 2014).

Key:
[1] = target: human recombinant ICAM-1 (D1-D2-Fc), Alexa Fluor 555 conjugate (human) (UniProt P05362); experiment: FRET or BRET; steady-state, in solution competition screening, 96-well plate; Alexa Fluor 488-LFA-1 (100 nM) mixed with peptide (0.02, 0.2, 2, 20 µM), then incubated with Alexa Fluor 555-D1-D2-Fc (100 nM) for 30 min in the dark; PBS pH 7.4, 1 mM EGTA, 2 mM Mg2+; inhibition efficiency from the FRET efficiency
[2] = target: recombinant human integrin LFA-1 (αLβ2), Alexa Fluor 488 conjugate (human) (UniProt P20701); experiment: FRET or BRET; steady-state, in solution, 96-well plate; Alexa Fluor 488-LFA-1 (donor) fixed at 100 nM, Alexa Fluor 555-D1-D2-Fc (acceptor) varied from 0 to 1.6 µM; PBS pH 7.4, 1 mM EGTA, 2 mM Mg2+; fit assuming one-to-one interaction
[3] = target: human recombinant ICAM-1 (D1-D2-Fc), Alexa Fluor 555 conjugate (human) (UniProt P05362); experiment: FRET or BRET; steady-state, in solution; emission spectra at 470 nm excitation of mixtures with Alexa Fluor 555-D1-D2-Fc constant at 100 nM and Alexa Fluor 488-LFA-1 at 25-300 nM (A/D 8.40-0.70); incubated 30 minutes at room temperature; FRET efficiency by Eq. (3)

Chain of human recombinant ICAM-1 (D1-D2-Fc), Alexa Fluor 555 conjugate (human) (P05362 28-532): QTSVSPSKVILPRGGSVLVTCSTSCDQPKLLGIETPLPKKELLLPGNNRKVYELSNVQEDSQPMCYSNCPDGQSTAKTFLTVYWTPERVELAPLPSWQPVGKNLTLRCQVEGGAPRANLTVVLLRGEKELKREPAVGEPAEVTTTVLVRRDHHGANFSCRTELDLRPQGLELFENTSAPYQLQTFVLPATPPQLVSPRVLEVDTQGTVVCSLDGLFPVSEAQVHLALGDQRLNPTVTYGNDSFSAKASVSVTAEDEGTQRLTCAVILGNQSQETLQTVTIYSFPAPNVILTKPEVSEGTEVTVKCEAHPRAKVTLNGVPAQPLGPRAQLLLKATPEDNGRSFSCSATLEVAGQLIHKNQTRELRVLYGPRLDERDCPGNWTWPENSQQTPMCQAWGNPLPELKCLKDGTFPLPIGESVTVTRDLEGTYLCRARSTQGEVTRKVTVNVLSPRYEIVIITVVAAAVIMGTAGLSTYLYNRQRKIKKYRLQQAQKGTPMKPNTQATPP
Chain of recombinant human integrin LFA-1 (αLβ2), Alexa Fluor 488 conjugate (human) (P20701 26-1090, chain 1 of 2): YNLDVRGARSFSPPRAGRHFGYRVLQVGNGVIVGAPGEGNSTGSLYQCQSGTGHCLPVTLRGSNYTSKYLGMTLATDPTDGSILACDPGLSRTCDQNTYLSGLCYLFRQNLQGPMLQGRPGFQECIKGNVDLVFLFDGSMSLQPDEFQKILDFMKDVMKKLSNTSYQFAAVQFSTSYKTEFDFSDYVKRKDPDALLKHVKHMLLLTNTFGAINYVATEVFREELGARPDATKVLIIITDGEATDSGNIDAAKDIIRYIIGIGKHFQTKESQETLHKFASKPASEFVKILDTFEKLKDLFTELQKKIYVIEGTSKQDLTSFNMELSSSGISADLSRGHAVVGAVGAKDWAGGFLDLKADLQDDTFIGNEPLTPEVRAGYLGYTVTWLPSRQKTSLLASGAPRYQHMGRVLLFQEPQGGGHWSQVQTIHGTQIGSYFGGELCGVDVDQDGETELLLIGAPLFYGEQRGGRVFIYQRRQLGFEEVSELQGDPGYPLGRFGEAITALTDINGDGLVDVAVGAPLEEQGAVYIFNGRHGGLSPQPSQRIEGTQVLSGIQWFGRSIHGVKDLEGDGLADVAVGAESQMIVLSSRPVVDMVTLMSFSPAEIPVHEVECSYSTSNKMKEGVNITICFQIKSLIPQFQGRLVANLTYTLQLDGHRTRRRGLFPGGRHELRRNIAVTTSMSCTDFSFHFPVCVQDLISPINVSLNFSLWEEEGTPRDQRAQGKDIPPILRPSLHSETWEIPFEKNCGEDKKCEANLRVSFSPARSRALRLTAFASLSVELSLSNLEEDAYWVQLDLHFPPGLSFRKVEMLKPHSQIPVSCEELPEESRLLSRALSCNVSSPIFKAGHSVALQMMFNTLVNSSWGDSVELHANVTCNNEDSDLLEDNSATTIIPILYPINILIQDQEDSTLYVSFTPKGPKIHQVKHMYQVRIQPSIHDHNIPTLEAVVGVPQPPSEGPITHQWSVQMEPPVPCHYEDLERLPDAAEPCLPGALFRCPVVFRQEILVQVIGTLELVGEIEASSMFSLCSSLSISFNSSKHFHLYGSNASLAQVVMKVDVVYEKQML
Chain of recombinant human integrin LFA-1 (αLβ2), Alexa Fluor 488 conjugate (human) (P05107 23-700, chain 2 of 2, further chain): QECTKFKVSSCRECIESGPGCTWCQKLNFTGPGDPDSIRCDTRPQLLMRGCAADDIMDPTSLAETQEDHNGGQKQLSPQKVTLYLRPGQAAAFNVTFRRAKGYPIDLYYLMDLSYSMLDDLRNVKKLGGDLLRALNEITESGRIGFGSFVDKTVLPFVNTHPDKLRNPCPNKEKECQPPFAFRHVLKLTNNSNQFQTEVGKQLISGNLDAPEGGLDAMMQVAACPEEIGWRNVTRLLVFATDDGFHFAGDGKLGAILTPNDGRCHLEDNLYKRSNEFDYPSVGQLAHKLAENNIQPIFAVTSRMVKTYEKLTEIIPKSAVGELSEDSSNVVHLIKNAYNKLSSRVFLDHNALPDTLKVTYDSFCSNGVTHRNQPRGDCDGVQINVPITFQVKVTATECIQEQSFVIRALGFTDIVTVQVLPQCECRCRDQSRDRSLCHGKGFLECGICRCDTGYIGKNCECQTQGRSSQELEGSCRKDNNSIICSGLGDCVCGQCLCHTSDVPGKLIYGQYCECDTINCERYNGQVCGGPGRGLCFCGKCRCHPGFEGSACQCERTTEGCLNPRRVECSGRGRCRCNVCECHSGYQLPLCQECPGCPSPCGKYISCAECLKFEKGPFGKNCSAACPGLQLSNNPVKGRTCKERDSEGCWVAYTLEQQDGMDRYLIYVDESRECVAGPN

## CD11a(441–465) peptide
[1]
  inhibition efficiency of the LFA-1/D1-D2-Fc interaction at 0.02 µM peptide: 20.9%
  inhibition efficiency of the LFA-1/D1-D2-Fc interaction at 0.2 µM peptide: 37.1%
  inhibition efficiency of the LFA-1/D1-D2-Fc interaction at 2 µM peptide: 46.9%
  inhibition efficiency of the LFA-1/D1-D2-Fc interaction at 20 µM peptide: 62%

## human recombinant ICAM-1 (D1-D2-Fc), Alexa Fluor 555 conjugate (from UniProt P05362 28-532) (Fc fusion)
[2]
  Kd: 17.9 nM

## recombinant human integrin LFA-1 (αLβ2), Alexa Fluor 488 conjugate (from UniProt P20701 26-1090; P05107 23-700) (complex)
[3]
  FRET efficiency (%) at A/D ratio 2.12 (100 nM LFA-1): 53.5%
